Experimental data published in patent publication US20200270325A1 (Merck Sharp & Dohme, published 2020).
Numbered stars: 1 amine (or outer) side, 2 acyl side, 3 side chain; on linkers, the order of the positions; unused ones are H or OH. Square brackets hold non-standard residues; d marks the D form. Side chains are listed from the residue outwards. Ends that are not written are not given here. * marks the point of attachment. C16 diacid = O=C(O)CCCCCCCCCCCCCCC(=O)*; γGlu = O=C(O)[C@H](CCC(=O)[*:2])N[*:1]; Met(O2) = CS(=O)(=O)CC[C@H](N)C(=O)O; AEEA = NCCOCCOCC(=O)O; Aib = CC(C)(N)C(=O)O

Tests used:
[1] = target: human Glucagon receptor (GCGR) (human, UniProt P47871 26-477); test: cell-based or functional assay
human Glucagon receptor (GCGR), sequence (P47871 26-477): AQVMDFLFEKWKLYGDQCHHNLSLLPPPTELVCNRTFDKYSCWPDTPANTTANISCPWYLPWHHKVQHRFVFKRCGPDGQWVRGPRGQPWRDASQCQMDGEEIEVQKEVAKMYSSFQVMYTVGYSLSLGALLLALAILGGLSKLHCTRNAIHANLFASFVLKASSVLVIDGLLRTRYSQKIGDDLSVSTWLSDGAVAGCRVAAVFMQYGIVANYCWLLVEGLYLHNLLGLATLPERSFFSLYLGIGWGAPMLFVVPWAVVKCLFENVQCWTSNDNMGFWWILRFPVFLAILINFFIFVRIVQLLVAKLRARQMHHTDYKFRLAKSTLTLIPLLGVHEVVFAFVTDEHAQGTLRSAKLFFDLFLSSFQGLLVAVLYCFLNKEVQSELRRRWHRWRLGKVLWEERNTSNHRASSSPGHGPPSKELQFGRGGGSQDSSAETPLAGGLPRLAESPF

[2] = target: human GLP-1 receptor (GLP1R) (human, UniProt P43220 24-463); test: cell-based or functional assay

Binder | GCGR EC50 human [1] | GLP1R EC50 human [2]
H[Aib]QGTFTSDYSKYLDARAAQEFVK([AEEA-AEEA-γGlu-C16 diacid])WL[Met(O2)]DT-NH2 (N-terminus assumed; SMILES CC(C)C[C@H](NC(=O)[C@H](Cc1ccc(O)cc1)NC(=O)[C@H](CCCCN)NC(=O)[C@H](CO)NC(=O)[C@H](Cc1ccc(O)cc1)NC(=O)[C@H](CC(=O)O)NC(=O)[C@H](CO)NC(=O)[C@@H](NC(=O)[C@H](Cc1ccccc1)NC(=O)[C@@H](NC(=O)CNC(=O)[C@H](CCC(N)=O)NC(=O)C(C)(C)NC(=O)[C@@H](N)Cc1c[nH]cn1)[C@@H](C)O)[C@@H](C)O)C(=O)N[C@@H](CC(=O)O)C(=O)N[C@@H](C)C(=O)N[C@@H](CCCNC(=N)N)C(=O)N[C@@H](C)C(=O)N[C@@H](C)C(=O)N[C@@H](CCC(N)=O)C(=O)N[C@@H](CCC(=O)O)C(=O)N[C@@H](Cc1ccccc1)C(=O)N[C@H](C(=O)N[C@@H](CCCCNC(=O)COCCOCCNC(=O)COCCOCCNC(=O)CC[C@H](NC(=O)CCCCCCCCCCCCCCC(=O)O)C(=O)O)C(=O)N[C@@H](Cc1c[nH]c2ccccc12)C(=O)N[C@@H](CC(C)C)C(=O)N[C@@H](CCS(C)(=O)=O)C(=O)N[C@@H](CC(=O)O)C(=O)N[C@H](C(N)=O)[C@@H](C)O)C(C)C) [TP813] | 0.21 nM | 0.14 nM
H[Aib]QGTFTSDYSKYLD[Aib]RAAQDFVK([AEEA-AEEA-γGlu-C16 diacid])WL[Met(O2)]DT-NH2 (N-terminus assumed; SMILES CC(C)C[C@H](NC(=O)[C@H](Cc1c[nH]c2ccccc12)NC(=O)[C@H](CCCCNC(=O)COCCOCCNC(=O)COCCOCCNC(=O)CC[C@H](NC(=O)CCCCCCCCCCCCCCC(=O)O)C(=O)O)NC(=O)[C@@H](NC(=O)[C@H](Cc1ccccc1)NC(=O)[C@H](CC(=O)O)NC(=O)[C@H](CCC(N)=O)NC(=O)[C@H](C)NC(=O)[C@H](C)NC(=O)[C@H](CCCNC(=N)N)NC(=O)C(C)(C)NC(=O)[C@H](CC(=O)O)NC(=O)[C@H](CC(C)C)NC(=O)[C@H](Cc1ccc(O)cc1)NC(=O)[C@H](CCCCN)NC(=O)[C@H](CO)NC(=O)[C@H](Cc1ccc(O)cc1)NC(=O)[C@H](CC(=O)O)NC(=O)[C@H](CO)NC(=O)[C@@H](NC(=O)[C@H](Cc1ccccc1)NC(=O)[C@@H](NC(=O)CNC(=O)[C@H](CCC(N)=O)NC(=O)C(C)(C)NC(=O)[C@@H](N)Cc1c[nH]cn1)[C@@H](C)O)[C@@H](C)O)C(C)C)C(=O)N[C@@H](CCS(C)(=O)=O)C(=O)N[C@@H](CC(=O)O)C(=O)N[C@H](C(N)=O)[C@@H](C)O) [TP811] | 0.21 nM | 0.26 nM
H[Aib]QGTFTSDYSKYLDARAAK([AEEA-AEEA-γGlu-C16 diacid])DFVQWL[Met(O2)]ET-NH2 (N-terminus assumed; SMILES CC(C)C[C@H](NC(=O)[C@H](Cc1ccc(O)cc1)NC(=O)[C@H](CCCCN)NC(=O)[C@H](CO)NC(=O)[C@H](Cc1ccc(O)cc1)NC(=O)[C@H](CC(=O)O)NC(=O)[C@H](CO)NC(=O)[C@@H](NC(=O)[C@H](Cc1ccccc1)NC(=O)[C@@H](NC(=O)CNC(=O)[C@H](CCC(N)=O)NC(=O)C(C)(C)NC(=O)[C@@H](N)Cc1c[nH]cn1)[C@@H](C)O)[C@@H](C)O)C(=O)N[C@@H](CC(=O)O)C(=O)N[C@@H](C)C(=O)N[C@@H](CCCNC(=N)N)C(=O)N[C@@H](C)C(=O)N[C@@H](C)C(=O)N[C@@H](CCCCNC(=O)COCCOCCNC(=O)COCCOCCNC(=O)CC[C@H](NC(=O)CCCCCCCCCCCCCCC(=O)O)C(=O)O)C(=O)N[C@@H](CC(=O)O)C(=O)N[C@@H](Cc1ccccc1)C(=O)N[C@H](C(=O)N[C@@H](CCC(N)=O)C(=O)N[C@@H](Cc1c[nH]c2ccccc12)C(=O)N[C@@H](CC(C)C)C(=O)N[C@@H](CCS(C)(=O)=O)C(=O)N[C@@H](CCC(=O)O)C(=O)N[C@H](C(N)=O)[C@@H](C)O)C(C)C) [TP814] | 0.156 nM | 0.078 nM
H[Aib]QGTFTSDYSKYLD[Aib]RAAQDFVK([AEEA-AEEA-γGlu-C16 diacid])WL[Met(O2)]ET-NH2 (N-terminus assumed; SMILES CC(C)C[C@H](NC(=O)[C@H](Cc1c[nH]c2ccccc12)NC(=O)[C@H](CCCCNC(=O)COCCOCCNC(=O)COCCOCCNC(=O)CC[C@H](NC(=O)CCCCCCCCCCCCCCC(=O)O)C(=O)O)NC(=O)[C@@H](NC(=O)[C@H](Cc1ccccc1)NC(=O)[C@H](CC(=O)O)NC(=O)[C@H](CCC(N)=O)NC(=O)[C@H](C)NC(=O)[C@H](C)NC(=O)[C@H](CCCNC(=N)N)NC(=O)C(C)(C)NC(=O)[C@H](CC(=O)O)NC(=O)[C@H](CC(C)C)NC(=O)[C@H](Cc1ccc(O)cc1)NC(=O)[C@H](CCCCN)NC(=O)[C@H](CO)NC(=O)[C@H](Cc1ccc(O)cc1)NC(=O)[C@H](CC(=O)O)NC(=O)[C@H](CO)NC(=O)[C@@H](NC(=O)[C@H](Cc1ccccc1)NC(=O)[C@@H](NC(=O)CNC(=O)[C@H](CCC(N)=O)NC(=O)C(C)(C)NC(=O)[C@@H](N)Cc1c[nH]cn1)[C@@H](C)O)[C@@H](C)O)C(C)C)C(=O)N[C@@H](CCS(C)(=O)=O)C(=O)N[C@@H](CCC(=O)O)C(=O)N[C@H](C(N)=O)[C@@H](C)O) [TP815] | 0.084 nM | 0.12 nM
H[Aib]QGTFTSDYSKYLDARAAK([AEEA-AEEA-γGlu-C16 diacid])EFVQWL[Met(O2)]DT-NH2 (N-terminus assumed; SMILES CC(C)C[C@H](NC(=O)[C@H](Cc1ccc(O)cc1)NC(=O)[C@H](CCCCN)NC(=O)[C@H](CO)NC(=O)[C@H](Cc1ccc(O)cc1)NC(=O)[C@H](CC(=O)O)NC(=O)[C@H](CO)NC(=O)[C@@H](NC(=O)[C@H](Cc1ccccc1)NC(=O)[C@@H](NC(=O)CNC(=O)[C@H](CCC(N)=O)NC(=O)C(C)(C)NC(=O)[C@@H](N)Cc1c[nH]cn1)[C@@H](C)O)[C@@H](C)O)C(=O)N[C@@H](CC(=O)O)C(=O)N[C@@H](C)C(=O)N[C@@H](CCCNC(=N)N)C(=O)N[C@@H](C)C(=O)N[C@@H](C)C(=O)N[C@@H](CCCCNC(=O)COCCOCCNC(=O)COCCOCCNC(=O)CC[C@H](NC(=O)CCCCCCCCCCCCCCC(=O)O)C(=O)O)C(=O)N[C@@H](CCC(=O)O)C(=O)N[C@@H](Cc1ccccc1)C(=O)N[C@H](C(=O)N[C@@H](CCC(N)=O)C(=O)N[C@@H](Cc1c[nH]c2ccccc12)C(=O)N[C@@H](CC(C)C)C(=O)N[C@@H](CCS(C)(=O)=O)C(=O)N[C@@H](CC(=O)O)C(=O)N[C@H](C(N)=O)[C@@H](C)O)C(C)C) [TP812] | 0.2 nM | 0.088 nM
H[Aib]QGTFTSDYSKYLDARAAQK([AEEA-AEEA-γGlu-C16 diacid])FVQWL[Met(O2)]ET-NH2 (N-terminus assumed; SMILES CC(C)C[C@H](NC(=O)[C@H](Cc1ccc(O)cc1)NC(=O)[C@H](CCCCN)NC(=O)[C@H](CO)NC(=O)[C@H](Cc1ccc(O)cc1)NC(=O)[C@H](CC(=O)O)NC(=O)[C@H](CO)NC(=O)[C@@H](NC(=O)[C@H](Cc1ccccc1)NC(=O)[C@@H](NC(=O)CNC(=O)[C@H](CCC(N)=O)NC(=O)C(C)(C)NC(=O)[C@@H](N)Cc1c[nH]cn1)[C@@H](C)O)[C@@H](C)O)C(=O)N[C@@H](CC(=O)O)C(=O)N[C@@H](C)C(=O)N[C@@H](CCCNC(=N)N)C(=O)N[C@@H](C)C(=O)N[C@@H](C)C(=O)N[C@@H](CCC(N)=O)C(=O)N[C@@H](CCCCNC(=O)COCCOCCNC(=O)COCCOCCNC(=O)CC[C@H](NC(=O)CCCCCCCCCCCCCCC(=O)O)C(=O)O)C(=O)N[C@@H](Cc1ccccc1)C(=O)N[C@H](C(=O)N[C@@H](CCC(N)=O)C(=O)N[C@@H](Cc1c[nH]c2ccccc12)C(=O)N[C@@H](CC(C)C)C(=O)N[C@@H](CCS(C)(=O)=O)C(=O)N[C@@H](CCC(=O)O)C(=O)N[C@H](C(N)=O)[C@@H](C)O)C(C)C) [TP825] | 0.07 nM | 0.036 nM
H[Aib]QGTFTSDYSKYLDARAAK([AEEA-AEEA-γGlu-C16 diacid])DFVQWL[Met(O2)][γGlu]T-NH2 (N-terminus assumed; SMILES CC(C)C[C@H](NC(=O)[C@H](Cc1ccc(O)cc1)NC(=O)[C@H](CCCCN)NC(=O)[C@H](CO)NC(=O)[C@H](Cc1ccc(O)cc1)NC(=O)[C@H](CC(=O)O)NC(=O)[C@H](CO)NC(=O)[C@@H](NC(=O)[C@H](Cc1ccccc1)NC(=O)[C@@H](NC(=O)CNC(=O)[C@H](CCC(N)=O)NC(=O)C(C)(C)NC(=O)[C@@H](N)Cc1c[nH]cn1)[C@@H](C)O)[C@@H](C)O)C(=O)N[C@@H](CC(=O)O)C(=O)N[C@@H](C)C(=O)N[C@@H](CCCNC(=N)N)C(=O)N[C@@H](C)C(=O)N[C@@H](C)C(=O)N[C@@H](CCCCNC(=O)COCCOCCNC(=O)COCCOCCNC(=O)CC[C@H](NC(=O)CCCCCCCCCCCCCCC(=O)O)C(=O)O)C(=O)N[C@@H](CC(=O)O)C(=O)N[C@@H](Cc1ccccc1)C(=O)N[C@H](C(=O)N[C@@H](CCC(N)=O)C(=O)N[C@@H](Cc1c[nH]c2ccccc12)C(=O)N[C@@H](CC(C)C)C(=O)N[C@@H](CCS(C)(=O)=O)C(=O)N[C@@H](CCC(=O)N[C@H](C(N)=O)[C@@H](C)O)C(=O)O)C(C)C) [TP826] | 0.67 nM | 0.253 nM
